Consider 3 molecules from patent US20090036647A1, “BITORAN WHICH IS TRYPSIN-INHIBITOR-LIKE PROTEIN DERIVED FROM BITIS ARIETANS VENOM, AND USE THEREOF AS BLOOD COAGULATION FACTOR Xa INHIBITOR” (NEC SOFT, LTD., priority 2005, published 2009).

The target of test [1] is T1, human blood coagulation factor Xa (Homo sapiens, UniProt P00742). The test can be described thus: cell-based or functional assay.
Target sequence in this assay (P00742 41-488 limits assumed): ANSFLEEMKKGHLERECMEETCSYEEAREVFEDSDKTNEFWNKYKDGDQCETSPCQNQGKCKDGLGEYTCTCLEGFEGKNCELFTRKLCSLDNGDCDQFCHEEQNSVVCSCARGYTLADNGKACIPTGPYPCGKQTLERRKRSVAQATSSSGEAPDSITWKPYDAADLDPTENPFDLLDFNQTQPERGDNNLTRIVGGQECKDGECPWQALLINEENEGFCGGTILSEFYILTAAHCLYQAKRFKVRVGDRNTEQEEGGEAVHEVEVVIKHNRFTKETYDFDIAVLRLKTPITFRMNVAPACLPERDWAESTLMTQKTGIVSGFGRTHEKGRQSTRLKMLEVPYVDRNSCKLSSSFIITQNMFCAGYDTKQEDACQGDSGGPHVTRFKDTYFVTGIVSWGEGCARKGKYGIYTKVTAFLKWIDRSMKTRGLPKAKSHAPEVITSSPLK
Test [2] deals with T1, human blood coagulation factor Xa. In words: Inhibition of the serine protease activity of human blood coagulation factor Xa (chromogenic substrate LGR-pNA). It counts as biochemical. Particulars: 0.3 μM human factor Xa, 15 min at 37° C. preincubation, synthetic substrate LGR-pNA, Tris-HCl buffered saline pH8.0; from V/V0 curves of FIG. 4; read-out: 50% inhibition concentration (IC50) against serine protease activity of factor Xa. The procedure: Crude venom of Bitis arietans arietans purchased from LATOXAN was dissolved in Tris-HCl buffer (50 mM Tris-HCl pH 8.0) to prepare 2 mL of a crude venom solution (in concentration of 250 mg/mL). The crude venom solution was applied to Superdex 200 pg gel permeation column (φ2.6 cm×L 60 cm) equilibrated with the Tris-HCl buffer (50 mM Tris-HCl pH 8.0) at a flow rate of 2 mL/min. Two mL aliquots of the series of eluted fractions were collected, and each eluted fraction was determined for the presence of inhibitory activity against the serine protease activity of blood coagulation factor Xa. In the assay for inhibitory activity specific to the serine protease activity of blood coagulation factor Xa, a synthetic substrate Boc-leucyl-glycil-L-arginyl-p-nitroanilide hydrochloride was used to determine a concentration of a reaction product formed by truncation at the C-terminal side of an arginine residue by protease activity of blood coagulation factor Xa (Cproduct: concentration of p-nitroaniline), and then from a product concentration without addition of a test substance: Cproduct0 and a product concentration with addition of a test substance: Cproduct, an inhibitory rate was calculated as (Cproduct0−Cproduct)/Cproduct0. […]
Target sequence in this assay (P00742 235-488 limits assumed): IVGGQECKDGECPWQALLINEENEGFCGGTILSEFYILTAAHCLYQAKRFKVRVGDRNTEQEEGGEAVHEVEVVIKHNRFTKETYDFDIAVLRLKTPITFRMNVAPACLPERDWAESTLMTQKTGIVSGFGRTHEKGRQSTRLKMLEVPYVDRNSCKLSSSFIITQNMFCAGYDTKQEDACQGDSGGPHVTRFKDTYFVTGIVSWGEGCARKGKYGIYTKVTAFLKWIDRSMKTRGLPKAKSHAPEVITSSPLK
Target sequence in this assay (P00742 41-179 partner limits assumed): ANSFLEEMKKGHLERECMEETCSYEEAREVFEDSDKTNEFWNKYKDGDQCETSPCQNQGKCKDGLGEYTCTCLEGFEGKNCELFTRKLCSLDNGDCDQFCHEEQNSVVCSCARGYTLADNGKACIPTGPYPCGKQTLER

As for “SBTI (Soybean Trypsin Inhibitor; MW=20.1 kDa) (from UniProt P01070 25-205)”, the 50% inhibition concentration (IC50) of factor Xa protease activity (V/V0), cleavage of synthetic substrate LGR-pNA in test [1] was 3e-07 M.

B1: SBTI: Trypsin inhibitor substance from plant; Kunitz-type trypsin inhibitor from soybean, MW=20.1 kDa, positive control (protein, UniProt P01070 25-205, looked up)
Trypsin inhibitor A: DFVLDNEGNPLENGGTYYILSDITAFGGIRAAPTGNERCPLTVVQSRNELDKGIGTIISSPYRIRFIAEGHPLSLKFDSFAVIMLCVGIPTEWSVVEDLPEGPAVKIGENKDAMDGWFRLERVSDDEFNNYKLVFCPQQAEDDKCGDIGISIDHDDGTRRLVVSKNKPLVVQFQKLDKESL
As for B1, the IC50 in test [2] was determined as 300 nM.

B2: bitoran V (protein)
chain: CRQNRPDFCYLPAVEGPCRAYIRSFFYNSTSNECEKFFYGGCYGNANKFETRDECRKTCVASA
In the case of B2, the IC50 in test [2] stood at 20 nM.
